Results on three compounds are retold here after patent US20250144222A1, “Bifunctional Compounds Targeting the Cation-Independent Mannose 6- Phosphate Receptor” (NANOMEDSYN, priority 2022, published 2025).

A short description of data set [1]: Pharmacokinetic profile in mice after single i.v. bolus. The note with it: single i.v. bolus 4 mg/kg, 21 days. The format is in vivo, C57BL/6J mice. How it is done: Mice were weighed before injection and throughout the experiment to monitor their health. Blood samples taken at 4 and 1, 2, 3, 7, 10, 14, 17 and 21 days post-injection were collected in tubes containing heparin and centrifuged at 3,000 g for 15 min, and the plasma was stored at −20° C. until measurement. Mice were sacrificed 21 days after injection.
The therapeutic antibody was detected using an HRP-conjugated anti-human IgG antibody specific for the Fc fragment, which was then quantified by a colorimetric assay with the OPD substrate and absorbance measure at 450 nm.

The next data set concerns the target T1, b-CI-M6PR (UniProt P08169).
T1 construct: fused on or other part: Chemical biotin label (biotin N-hydroxysuccinimide) for streptavidin-peroxidase detection; no fused protein
Description: Competitive binding of biotinylated CI-M6PR to adsorbed pentamannose 6-phosphate. The note with it: competitive assay with pentamannose 6-phosphate ligand; read-out: Affinity for b-CI-M6PR (IC50) (converted). The protocol:
Briefly, CI-M6PR, purified on a phosphomannane-sepharose affinity column, was biotinylated with biotin N-hydroxysuccinimide. […] The b-CI-M6PR bound to adsorbed PMP was then determined using streptavidin conjugated to the peroxidase and its substrate, o-phenylenediamine dihydrochloride (OPD), by optical density measurements. The 100% value corresponds to the concentration of b-CI-M6PR bound to PMP adsorbed in the absence of a competitor.

Regarding infliximab [mAb1, reference compound], in data set [1], the adverse clinical events result is “No adverse clinical events”.
Same read-out and setting: the same measure for adalimumab [mAb2, reference compound]: “No adverse clinical events”.
What is called IC50 is the midpoint of a concentration-inhibition curve. `O=C[C@@H](O)[C@@H](O)[C@H](O)[C@H](O)COP(=O)(O)O` [M6P, mannose 6-phosphate]: on b-CI-M6PR, the IC50 was 20 µM.
